What was measured:
[1] = system: TGF-β receptor serine threonine kinases (ALK1-7); assay: Panel of small molecule ALK inhibitors: inhibin-induced signaling and angiogenesis; assay type: cell-based; conditions: preliminary screen of ALK inhibitors
Description: The inhibin-α activation of the SMAD1/5 pathway was also examined to determine which receptor type is required. TGF-β receptor serine threonine kinases (ALK1-7) are used by other TGF-β ligands. Testing was done to determine which Type I receptor is utilized by inhibin by using a panel of small molecule inhibitors as a preliminary screen for different ALKs. […] Similarly, three type II receptors are expressed in cells: TBRII, ACTRII and BMPRII.

[2] = system: HMvEC-1 cells; assay: Three-dimensional capillary sprouting and tube formation (number of meshes); assay type: cell-based, human
Description: FIG. 25 illustrates three-dimensional capillary sprouting and tube formation of HMvEC-1 cells in the presence of conditioned media (CM) from shControl SKOV3 cancer cells or CM from shINHA SKOV3 cancer cells (top), in the presence of CM from shControl SKOV3 cells in the presence of 10 μg/ml IgG or anti-inhibin-α (middle), and in the presence of CM from shControl treated with (+) or without (−) 300 pM recombinant Inhibin A alone and anti-inhibin-α antibody (10 μg/ml) (bottom). The bar graphs represent the average number of meshes quantified and represent duplicate trials. […] (Bar graphs show mean±SEM, ***P<0.001 and **P<0.01 (n=3), Student's t-test. Scale Bar=500 μm.)
Other TGF-β members have been reported to have effects on angiogenesis. FIG. 26 illustrates side-by-side comparison of angiogenesis results for HMvEC-1 cells treated as indicated with other TGF-β members (activin A, BMP9, TGFβ1) either alone or in the presence of inhibin-α. The robust effect of inhibin on angiogenesis can be seen. The bar graph represents quantitation of number of meshes.
FIG. 27 illustrates the capillary sprouting and tube formation of multiple endothelial cell types (HUVEC, HMvEC, MEEC) upon treatment with 300 pM inhibin-α for 16 hours and the broad effect of inhibin on angiogenesis in different cell types. The graphs represent the number of meshes, branches, and nodes quantified. (Bar graphs show mean±SEM, ***P<0.001 and **P<0.01 (n=3), Student's t-test. Scale Bar=500 μm.)
FIG. 32 illustrates three-dimensional capillary sprouting and tube formation of HMvEC-1 cells in the presence or absence of recombinant inhibin-α (300 pM) either untreated or pretreated with 100 μg/ml TRC105 for 30 minutes prior to inhibin-α treatment (left, scale bar=500 μm). Average number meshes/field was quantified 16 h after treatment and presented in the bar graph (middle). Minimum of 3 fields were counted and data represent duplicate trials. Western blotting for SMAD1/5 phosphorylation is shown (right) in response to 20 pM inhibin-α for up to 60 minutes.
FIG. 34 illustrates capillary sprouting and tube formation (left) in HMvEC-1 cells in response to inhibin-α in the absence and presence of 5 μM of TRC105 added 30 minutes prior to treatment with inhibin-α. The bar graph on the right represents the number of meshes quantified.

[3] = system: ERK1/2; assay: Western blot for MAPK pathway ERK1/2 activation in endothelial cells (MEEC); assay type: cell-based, mouse; conditions: time course
Description: (§1) Mouse Embryonic Endothelial Cells (MEEC) and Human Microvascular Endothelial Cells (HMvEC-1) were examined to determine the effect of inhibin-α on SMAD1/5 activation and on MAPK pathway activation, and specifically, on ERK1/2 activation. GAPDH or B-actin was used as control. Cells were incubated with 20 pM inhibin-α and examined over a time course of 60 minutes and also examined following 30-minute incubation over a dose course from 0 to 100 pM inhibin-α. Western blot results are shown of the HMvEC-1 (FIG. 17) and MEEC (FIG. 18). FIG. 19 presents the Western blot time course results following incubation of MEEC with inhibin-α for ERK1/2 activation. FIG. 20 presents image results from staining (Psmad1/5, DAP, and merged images) for HMvEC-1 cells (left) and MEEC cells (right) following incubation in inhibin-α or untreated (UT).

[4] = system: SMAD1/5; assay: Western blot and staining for SMAD1/5 activation in endothelial cells (HMvEC-1, MEEC); assay type: cell-based, human, mouse
Description: as §1
To determine if inhibin secreted by ovarian cancer cells activates the SMAD1/5 pathway in endothelial cells, conditioned media were obtained from stable cell lines that were generated from SKOV3 cells and OVCA420 cells with short hairpin RNA either as a control (with no effective sequence) (shControl), or directed at inhibin-α (shINHA), or stable unmodified SKOV3 cells. HMvEC-1 cells were then incubated in one of the conditioned media, as schematically illustrated in FIG. 22.

[5] = system: SMAD2/3; assay: Western blot for SMAD2/3 activation in endothelial cells (HMvEC-1, MEEC); assay type: cell-based, human, mouse

NC(=O)c1ccc(-c2nc(-c3ccc4c(c3)OCO4)c(-c3ccccn3)[nH]2)cc1 [SB431542]
suppression of inhibin-induced signaling and angiogenesis [1]: not ALK3/6 or ALK5/4/7 (SB431542), suppressed

B1: recombinant Inhibin: recombinant Inhibin A, αβA heterodimer, used at 300 pM (protein, UniProt P05111 233-366; P08476 311-426, looked up)
Inhibin alpha chain: STPLMSWPWSPSALRLLQRPPEEPAAHANCHRVALNISFQELGWERWIVYPPSFIFHYCHGGCGLHIPPNLSLPVPGAPPTPAQPYSLLPGAQPCCAALPGTMRPLHVRTTSDGGYSFKYETVPNLLTQHCACI
Inhibin beta A chain: GLECDGKVNICCKKQFFVSFKDIGWNDWIIAPSGYHANYCEGECPSHIAGTSGSSLSFHSTVINHYRMRGHSPFANLKSCCVPTKLRPMSMLYYDDGQNIIKKDIQNMIVEECGCS
endothelial cell angiogenesis induced by tumor cell-produced inhibin (number of meshes) ([2]; HMvEC-1, CM from shControl SKOV3, antibody 10 μg/ml, recombinant Inhibin A 300 pM): can be recapitulated

B2: inhibin-α: α-subunit of inhibin, critical for the functionality of dimeric inhibin (both A and B) (protein, UniProt P05111 233-366, looked up)
Inhibin alpha chain: B1 Inhibin alpha chain
ERK1/2 activation [3]: robust activator
SMAD1/5 pathway activation by cancer cell conditioned media ([4]; HMvEC-1 cells in conditioned media of shControl or shINHA SKOV3/OVCA420 cells): activates the SMAD1/5 pathway in endothelial cells in a paracrine manner
SMAD1/5 activation ([4]; endothelial cells, 20 pM over 60 minutes, 0 to 100 pM for 30 minutes): robust activator
SMAD2/3 activation [5]: not equally an activator
angiogenesis (number of meshes), side-by-side with other TGF-β members ([2]; HMvEC-1, compared with activin A, BMP9, TGFβ1): robust effect
capillary sprouting and tube formation in multiple endothelial cell types ([2]; HUVEC, HMvEC, MEEC, 300 pM, 16 hours): broad effect

B3: TRCN105: humanized antibody to endoglin in clinical trials (antibody, chains of the INN, looked up, V domains shown)
VH: EVKLEESGGGLVQPGGSMKLSCAASGFTFSDAWMDWVRQSPEKGLEWVAEIRSKASNHATYYAESVKGRFTISRDDSKSSVYLQMNSLRAEDTGIYYCTRWRRFFDSWGQGTTLTVSS
VL: QIVLSQSPAILSASPGEKVTMTCRASSSVSYMHWYQQKPGSSPKPWIYATSNLASGVPVRFSGSGSGTSYSLTISRVEAEDAATYYCQQWSSNPLTFGAGTKLELK
inhibin-α-induced angiogenesis on loss or block of endoglin or ALK1 ([2]; endothelial cells with or without recombinant inhibin-α): inhibin does not induce angiogenesis

From patent publication US20220002732A1, “INHIBIN AS TARGETABLE REGULATORS OF ANGIOGENESIS” (UNIVERSITY OF SOUTH CAROLINA, priority 2016, published 2022)
